Measured values published in the nanobody polyreactivity screen of Harvey et al. (2022).

assay: yeast display, Sf9 membrane polyspecificity reagent, FACS + sequencing; frameworks hold sequencing errors
Outline: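 In a synthetic yeast display library (Saccharomyces cerevisiae BJ5465), nanobody expression was induced with galactose for 36–48 hours. FACS gates were set low and high (top ~1%) using anti-HA fluorescence for expression and streptavidin fluorescence for binding of the Sf9 membrane reagent. Each polyreactivity label is drawn from the gate of origin.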

Row | Sequence | polyreactivity (PSR sort gate)
1 | QVQLVESGGGLVQAGGSLRISCAASGYTFLAYAMGWYRQAPGKERELVAAISRSGVSTYYADSVKGRFTISRDNAKNTVYLQMYSLKTEYTAVYYFNARSGRQLARYGYWGHGTQVTVSS | high polyreactivity
2 | QVQLVESGGGLVQAGGSLRISCAASRSTFGIYAMGWYRQAPGKERELVAAISFRCGRTYYADSVKGRFTISRDNAKNTVYLQMISLKPEDNAVYYCAATWYWGNAYWGQGTQVTVSS | low polyreactivity
3 | QVQLVESGGGLVQAGGSLRISCAASVSTFDINTMGWYRQAPGKEREFVAAITDSDDSTYYADSVKGRFTISRDNAKNTVYLQMNSLKPEDSAVYYCAADRSHAYYRKNRVDYWGQGTQVTVSS | low polyreactivity
4 | QVQLVESGGGLVQAGGSLRISCAATGIIFIGYAMGWYRQAPGKERELVAAITRSGVSTYYADSVKGRFTISRDNAKNTVYLQMNSLKPEDTAVYYCAARYFGEKYSHGFDYWGQGTQVTVSS | low polyreactivity
5 | QVQLVESGGGLVQAGGSLRISCADSGSIFHPNAMGWYRQAPGKERELVAAISIGGDTYYADSVKGRFTISRDNAKNTVYLQMNSLKPEDTAVYYCAVTYVGHVYEYYYWGQGTQVTVSS | low polyreactivity
6 | QVQLVESGGGLVQAGGSLRISCAGSGSIFSRNAMGWYSQAPGTERELVAAITGSGSSTYYADSVKGRFTISRDNAKNTVYLQMNSLKPEDTAGYYCNAARVYLSEWGQGTQGTVSS | high polyreactivity
7 | QVQLVESGGGLVQAGGSLRISCASSGRTFWGNAKGRYRQAPGKERELVAGITKSGGTTYADSVKGRFTISRDNAKKTVYLQMNSLKPEDTAVYYCNAVRWQKGDYWGQGTQVTVSS | high polyreactivity
8 | QVQLVESGGGLVQAGGSLRISCASSGSIFYLNAMGWYRQAPGKERELVAAISRRGGTTSYADSVKGRFTISRDNAKNTVFLQMNSLKPEDTAVYYCAKRTKPSKNYYYWGQGTQVTVSS | high polyreactivity
9 | QVQLVESGGGLVQAGGSLRISCASSVRILGVYFMGWYRQAPGKERELVAAISGGGRTNYADSVKGRFTISRDNAKNTVYFQMNRLNPEDTAVYYCNAERPYQFYQCIYSWYYYWGQGTQVTVSS | low polyreactivity
10 | QVQLVESGGGLVQAGGSLRISCDASGRTFYWNAMGWYRQAPGKEREFVAAITNTAVSTYYADSVKGRFTISRDNAKNTVYLQMNSLKPEATAVYYCAKSGNAGYRTYLRDYWGQGSQVTVSS | low polyreactivity
11 | QVQLVESGGGLVQAGGSLRISFAASGSTFDIYVMGWYRQAPGKERELVAAISRVGNTSYADSVKGRFTISRDNAKNTVYLQMNSLKPEDKAVYYCAADAPSWYDRQYDYWGKGTQVTVSS | low polyreactivity
12 | QVQLVESGGGLVQAGGSLRISSAASGIIFPWYYMGWYRQAPGKESELVAGITDGGDTTYADSVKWRFTISRDYAMNNVYLEMNRLKPEDTAVYYCAADIGYGYWHFDYLGQGTQVTVSS | low polyreactivity
13 | QVQLVESGGGLVQAGGSLRISSAASGSTNYPNAMGWYRQAPGKERELVAVIRWSGGSTYYADSVKGRFTISRDNAKNTVYLQMNSLKPEDTAVYYCNADFYRVAYLRRYSHFDYWGQGTQVTVSS | high polyreactivity
14 | QVQLVESGGGLVQAGGSLRITCAASGSIYKSNAMGWYRQAPGKEREFVAAITWSGGSTYYADSVKGRFTISRDNAKNTVDLKMNSLKPEDTAVCYCAATQYRSDGWRYDYWGQGTQVTVSS | high polyreactivity
15 | QVQLVESGGGLVQAGGSLRITCAASGYTFGAYSMGWYRQAPWKERELVAAITVRAGRTYYADSVKGRFTISRDNAKNTVYLQMNSLKPEDTAVYYCAADGYLLYVQHPNGRRYDYWGQGTQVTVSS | low polyreactivity
16 | QVQLVESGGGLVQAGGSLRITCAGSGRTFFGYAMGWYRQAPGKERELVAAITRGGSTNYADSVKGRFTISLDNGKNTLYLQMNSLKPEDSAVYYCAVGVPTTFKNRRYFRMDYWGQGTQGTVSS | high polyreactivity
17 | QVQLVESGGGLVQAGGSLRLICAASGATFVDYTMGWYRQAPGKERELVAAITVSAGSTYYADSVKGRFTISRDNAKNTVYLQMNSLKPEDTAVYYCAKATSSFYHYRYDYWGQGTQVTVSS | low polyreactivity
18 | QVQLVESGGGLVQAGGSLRLICAASGFIFGLNAIGWYRQAPGKERELVAAIRSASSTNYADSVKGRFTISRDNAKNTVYLQMNSLKPEDTAVYYCAAEDFTRQFEYWGQGTQVTVSS | low polyreactivity
19 | QVQLVESGGGLVQAGGSLRLICAASGFIFHSYAMGWYRQAPGKERELVARITIGDSTKYADSVKGRFTISRDNAKNTVYLQMNSLKPEDTAVYYCAADGWRYIAYYQGFRRMNYWGQGTQVTVSS | high polyreactivity
20 | QVQLVESGGGLVQAGGSLRLICAASGFIFKGYAMGWNRQAPGKERELVAAISSSGTSTYYADSVKGRFTISRDNAKNTVYLQMNSLKPEDTAVYYCAADLASYAYRYDFWGQGTQVTVSS | high polyreactivity
21 | QVQLVESGGGLVQAGGSLRLICAASGFIFNKNAMGWYRQAPGKERELVAAISQIGGTTYYADSVKGRFTISRVNAKNTVYLQMNSLKPEDTSVYYCAASRRVQSDYWGQGTQVTVSS | high polyreactivity

Row | Sequence | polyreactivity (PSR sort gate)
22 | QVQLVESGGGLVQAGGSLRLICAASGFIFPQNAMGWYRQAPGKERELLAAISKRGGSTYYADSVKGRFTISRDYAKNTVYLQMNSLKPEDTAVYYCAAGYRTRRGLGYYYWGQGTQVTVSS | high polyreactivity
23 | QVQLVESGGGLVQAGGSLRLICAASGFIFTTYAMGWYRQAPGKEREVVAAISSSGTTYYADSVKGRFTISRDNAKNTVYLQMNSLKPEDTAVYYCAARRQFRSYQQRLYYWGQGTQVTVSS | low polyreactivity
24 | QVQLVESGGGLVQAGGSLRLICAASGFIFVYYVMGWYRQAPGKERELVAAITQSGGSTYYADSVKGRFTISRDNAKNTVYLQMNSLKPEDTAVYYCAAYRRTTGGGYDYWGQGTQVTVSS | high polyreactivity
25 | QVQLVESGGGLVQAGGSLRLICAASGFIFYYYAMGWYRQAPGKERQVVAAITWSGGITYYADSVKGRFTISRDNAKNTVYLQMISMKPEDTAVYYCATGYEYYGYSGSRRDYWGQGTQVTVSS | low polyreactivity
26 | QVQLVESGGGLVQAGGSLRLICAASGFILRRYAMGWFRPAPGKEREFVAAIRYRGGNTYYADSVKGRFTLSRDTAKNTVYFQMNSLNPEDTAVYYCAADWSEKYEYWRQGTQVTVSS | high polyreactivity
27 | QVQLVESGGGLVQAGGSLRLICAASGFIYSYYAMGWYRQAPGKERELVAVISGSGGGTYYAVSVKGRFRISRDNAKNTVYLQMNSLKPEDTAVYDFAARNSGGTTKYYYWGQGTQVTVSS | high polyreactivity
28 | QVQLVESGGGLVQAGGSLRLICAASGFTFRSYAMGWYRQAPGKERELVAAITSTGGRTYYADSVKGRFTISRDNAKNTVYLQMNSLKPEDTAVYYCAAGRKHYAPVHFGYWGQGTQVTVSS | high polyreactivity
29 | QVQLVESGGGLVQAGGSLRLICAASGFTFYNYAKGWYRQAPGKERQLVAAISTSGGSTYYADSVKGRFTISRDNAKNTVYLQMNSLKPEDTAVYYCAAQATAYSYAYYYWGQGTQVTVSS | low polyreactivity
30 | QVQLVESGGGLVQAGGSLRLICAASGFTINYYVMGWYRQAPGKERELVAAISGRGGSTYYADSVTGRFTISRDNAKNTVYLQMNSLNPEETAVYYCNKVFSIPWQGVRFDFWGQGTQVTVSS | high polyreactivity
31 | QVQLVESGGGLVQAGGSLRLICAASGGIFYFNAMGWYRQAPGKERELVASITWSGGNTYYADSVKGRFTISRDNAKNTVYLQMNSLKPEDTAVYYCAADTQEYRPTYDYWGQGTQVTVSS | low polyreactivity
32 | QVQLVESGGGLVQAGGSLRLICAASGIFASYAMGWYRQAPGKERELVAAIRSSGGRTYYADSVKGRFTISRDNAKNTVYLQMNSLKPEDTAVYYCAVASGQSFYWGQGTQVTVSS | high polyreactivity
33 | QVQLVESGGGLVQAGGSLRLICAASGIIFNHNAMGWYRQAPGKERELVAAITLSGGTTYYADSVKGRFTISRDNAKNTVYVQMNSLKPEDTALYYCATRSYILGWRYDYWGQGTQVTVSS | high polyreactivity
34 | QVQLVESGGGLVQAGGSLRLICAASGIIFRYYAMGWYRQAPGKERELVASISRGGSTYYADSVKGRFTISRDNAKNTVYLQMNSLKPEDTAVYYCAADVYPVYLYGYEYCGQGTQVTVSS | high polyreactivity
35 | QVQLVESGGGLVQAGGSLRLICAASGITFAVYAMGWYSQAPGKERELVAASSVSGGSTYYADSVKGRFTISRDNAKNTVYLQMNSLKPEATAVYYGAADRYGHFGDWGQGTQVTVSS | high polyreactivity
36 | QVQLVESGGGLVQAGGSLRLICAASGITFLQYARGWYRQATGKERELVAVISRGSRTYYADSVKGRFTISRDNAKNTFYLQMNSLKPEDTAVYYCAAVRGLAVGYDYWGQGTQVTVSS | high polyreactivity
37 | QVQLVESGGGLVQAGGSLRLICAASGITFLRYAMGWYRQAPGKERELVAAISTRGGSTYYADSVKGRFTISRDNAKNTVYLQMNSLKPEDTAVYYCAAAGVTGSYGGKGRWYDFWGQGSQVTVSS | high polyreactivity
38 | QVQLVESGGGLVQAGGSLRLICAASGITLWTYAMGWYRQAPGKERELVAAIRRGGSTYYADSVKGRFTISRDNAKYTVFLQMNSLKPEDTAVYYCNTVSFYPYYYWGQGTQVTVSS | high polyreactivity
39 | QVQLVESGGGLVQAGGSLRLICAASGITYDQNAMGWYRQAPGKDRDLVAAITRGSSTNYADSVKGRVTISRDNAKNTVYLKMNSVKPEDTAVYYCAAAVLGSSKSEVDPDRPEYYYWGQGTQVTVSS | low polyreactivity
40 | QVQLVESGGGLVQAGGSLRLICAASGLIFPSYAMGWYRQAPGKERELVAGINSGGSTNYADSVKGRFTISRDNAKNTVYLQMNSLKPEDTAVYYCAKDNNYYWYVSPRDYWGQGTQVTVSS | low polyreactivity
41 | QVQLVESGGGLVQAGGSLRLICAASGLTFHPYAMGWYRPAPGKERELVAAISSRGTSTYYADSVKGRFTISRDNAQNTVYLQMNCLKPEDTAVYYFAARHGPRAEAMYYWGQGTQVTVSS | high polyreactivity
